The Kd is a measure of binding affinity in units of concentration.

Data set [1] concerns the target T1, TDP-43 RRM2 (UniProt Q13148 186-267). Put plainly: fluorescence anisotropy; Anisotropy: 50 mM Tris, 100 mM NaCl, pH 8.0, 10 C, 0.1 uM probe, 0-30 uM protein (RNasin for RNA); pull-down: same buffer on Ni resin, room temperature, 1 h, eluted with 1 M NaCl. As to conditions: protein: recombinant; tags: N-term His6 + thrombin site + GSSGSSG linker; His removed by thrombin for anisotropy, kept for pull-down; label: 5'-fluorescein.

For data set [2], the target named is T2, TDP-43 RRM1 (UniProt Q13148 96-185). The data set is described as above. As to conditions: protein: recombinant; tags: N-term His6 + thrombin site + GSSGSSG linker; His removed by thrombin for anisotropy, kept for pull-down; label: 5'-fluorescein.
T2 sequence (Q13148 96-185): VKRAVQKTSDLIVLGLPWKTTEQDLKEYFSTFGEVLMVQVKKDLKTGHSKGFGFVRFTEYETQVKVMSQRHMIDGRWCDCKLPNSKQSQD
Data set [3] concerns the target T3, TDP-43 RRM1-2 (UniProt Q13148 96-267). The data set is described as above. As to conditions: protein: recombinant; tags: N-term His6 + thrombin site + GSSGSSG linker; His removed by thrombin for anisotropy, kept for pull-down; label: 5'-fluorescein.
Data set [4] has as its target T1, TDP-43 RRM2. Put plainly: pull-down; Anisotropy: 50 mM Tris, 100 mM NaCl, pH 8.0, 10 C, 0.1 uM probe, 0-30 uM protein (RNasin for RNA); pull-down: same buffer on Ni resin, room temperature, 1 h, eluted with 1 M NaCl. The note with it: protein: recombinant; tags: N-term His6 + thrombin site + GSSGSSG linker; His removed by thrombin for anisotropy, kept for pull-down.

In data set [5] the target is T2, TDP-43 RRM1. Described as above. The note with it: protein: recombinant; tags: N-term His6 + thrombin site + GSSGSSG linker; His removed by thrombin for anisotropy, kept for pull-down.
Data set [6] concerns the target T3, TDP-43 RRM1-2. The data set is described as above. As to conditions: protein: recombinant; tags: N-term His6 + thrombin site + GSSGSSG linker; His removed by thrombin for anisotropy, kept for pull-down.
Data set [7] has as its target T1, TDP-43 RRM2. Put plainly: fluorescence anisotropy; RNasin; Anisotropy: 50 mM Tris, 100 mM NaCl, pH 8.0, 10 C, 0.1 uM probe, 0-30 uM protein (RNasin for RNA); pull-down: same buffer on Ni resin, room temperature, 1 h, eluted with 1 M NaCl. As to conditions: protein: recombinant; tags: N-term His6 + thrombin site + GSSGSSG linker; His removed by thrombin for anisotropy, kept for pull-down; label: 5'-fluorescein. On the technique in general: Fluorescence polarisation rises when a labelled molecule tumbles more slowly, as on binding a larger partner.

Data set [8] deals with T2, TDP-43 RRM1. The data set is described as above. As to conditions: protein: recombinant; tags: N-term His6 + thrombin site + GSSGSSG linker; His removed by thrombin for anisotropy, kept for pull-down; label: 5'-fluorescein.
The target in data set [9] is T3, TDP-43 RRM1-2. The data set is described as above. The note with it: protein: recombinant; tags: N-term His6 + thrombin site + GSSGSSG linker; His removed by thrombin for anisotropy, kept for pull-down; label: 5'-fluorescein.

T1 sequence (Q13148 186-267): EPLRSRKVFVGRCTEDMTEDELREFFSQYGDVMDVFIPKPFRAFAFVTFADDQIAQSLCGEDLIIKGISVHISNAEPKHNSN
T3 sequence (Q13148 96-267): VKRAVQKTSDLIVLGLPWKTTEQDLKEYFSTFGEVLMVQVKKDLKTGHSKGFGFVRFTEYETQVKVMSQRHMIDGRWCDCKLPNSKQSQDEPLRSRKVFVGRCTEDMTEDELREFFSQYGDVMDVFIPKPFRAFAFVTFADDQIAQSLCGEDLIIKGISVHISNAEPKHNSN

Take UGUGUGUG (ssDNA, DNA with T replaced by U) [Fl-(UG)4 ssDNA]: in the data set with TDP-43 RRM2 [1], the binding result is listed as “no binding”. Also, the Kd with TDP-43 RRM1 [2] worked out at 61 ± 30 nM; in the data set with TDP-43 RRM1-2 [3], 150 ± 23 nM.

As to TTTTTTTTTTTTTTTTTTTTTTTTTTTTTT (ssDNA) [T30], the figures for the binding result with TDP-43 RRM2 [4], with TDP-43 RRM1 [5] and with TDP-43 RRM1-2 [6] were “no binding”, “binds” and “binds”, respectively.

As for ACACACAC (ssDNA) [Fl-(AC)4 ssDNA], the binding result with TDP-43 RRM2 [1], with TDP-43 RRM1 [2] and with TDP-43 RRM1-2 [3] was “no binding” each time.

In the case of TTTTTTTTTTTT (ssDNA) [T12], the results for the binding result with TDP-43 RRM2 [4], with TDP-43 RRM1 [5] and with TDP-43 RRM1-2 [6] were “no binding”, “binds” and “binds”, respectively.

Take TGTGTGTG (ssDNA) [Fl-(TG)4 ssDNA]: in the data set with TDP-43 RRM2 [1], the binding result was “no binding”. The Kd with TDP-43 RRM1 [2] was determined as 52 ± 12 nM; in the data set with TDP-43 RRM1-2 [3] it was 77 ± 4.2 nM.

As to UGUGUGUG (ssRNA) [Fl-(UG)4 RNA], in the data set with TDP-43 RRM2 [7], the binding result was “no binding”. Also, the dissociation constant (Kd) in the data set with TDP-43 RRM1 [8] worked out at 28 ± 9 nM; with TDP-43 RRM1-2 [9], 3.5 ± 2.3 nM.

The values above are taken from PMC4738331, “A molecular mechanism realizing sequence-specific recognition of nucleic acids by TDP-43”.
